Results taken from patent US20180002437A1 (ABRUZZO THERANOSTIC S R L, published 2018).
Positions count from the first letter of the chain named.

How the values were obtained:
[1] = molecular target: T1, human Trop-2 on the cell surface (native, endogenous or transfected) (human, UniProt P09758 27-323); assay: flow cytometry competition with 2G10-488 on MTE 4-14/Trop-2 and MCF7 cells (sentence also sums up the competitive ELISA)
T1 construct: On Colo205, HT29 and MCF7 cells (endogenous) and on KM12SM and murine MTE 4-14 cells transfected with Trop-2; For the transfectants the species of the Trop-2 is not repeated in the sentence; also called TACSTD-2; native Trop-2
T1 sequence: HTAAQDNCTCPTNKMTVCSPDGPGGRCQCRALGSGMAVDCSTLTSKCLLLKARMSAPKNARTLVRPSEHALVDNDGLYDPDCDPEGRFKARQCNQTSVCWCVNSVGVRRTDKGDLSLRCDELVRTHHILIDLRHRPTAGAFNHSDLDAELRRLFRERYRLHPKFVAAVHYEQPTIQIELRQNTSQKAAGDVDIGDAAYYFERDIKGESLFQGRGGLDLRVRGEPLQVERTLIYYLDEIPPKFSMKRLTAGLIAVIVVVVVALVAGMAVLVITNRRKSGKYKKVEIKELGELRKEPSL
Source text: The binding to Trop-2 of the purified Ch2G10, Hu2G10-5 and Hu2G10-6 antibodies was also characterized by flow cytometry using alive cells that express native surface Trop-2 (either ndogenous or transfected). […] The cells were then washed and analyzed by flow cytometry as described.

[2] = molecular target: T1, human Trop-2 on the cell surface …; assay: flow cytometry, MCF-7 cells, goat anti-human Alexa-488
Procedure: FIG. 38: Specific recognition of Trop-2 by the humanized monoclonal antibodies according to the present invention - analysis by flow cytometry. (A) human metastatic colon cancer KM12SM cells transfected with a vector expressing Trop-2 (left panel) or with the empty vector (right panel) were incubated with the ‘humanized anti-Trop-2 monoclonal antibody Hu2EF-7. […] Unstained negative controls (thin line) are shown for comparison. (B) Human colon cancer HT29 cells (left panel) or breast cancer MCF-7 cells (right panel) expressing Trop-2 were incubated with the humanized Hu-2EF-7 and Hu-2G10-6anti-Trop-2monoclonal antibodies respectively.

[3] = molecular target: T1, human Trop-2 on the cell surface …; assay: cell-based or functional assay
[4] = molecular target: T1, human Trop-2 on the cell surface …; assay: flow cytometry competition on Colo205 cells (FIG. 31 and FIG. 37)
Procedure: FIG. 37: Relative affinity of the 2EF and Hu2EF-7 antibodies for native Trop-2—Flow citometry analysis. Human colon cancer COLO205 cells, which are positive for Trop-2, were incubated with FITC-labelled 2EF antibody pre-mixed with increasing concentrations of unlabelled Hu2EF-7 purified from CHO-K1 or YB2/0 cells.
(§1) The relative affinity of Hu2EF-4 e Hu2EF-5 for the native Trop-2 antigen was also analysed by means of […] competitive binding measured by flow cytometry on live tumor cells that express surface Trop-2. […] After 20 min at 4° C. cells were washed with 5 ml of SM and resuspended in 500 μl di SM with 0.5 μg/ml propidioiodide to discriminate dead cells). Fluorescence was then analysed by flow cytometry (FACScalibur, FACScan, Becton Dickinson, Sunnyvale, Calif.) as previously described (Alberti, Nutini et al. 1994) (FIG. 31). […] Simila results were obtained for the Hu2EF-4 antibody.

[5] = molecular target: T1, human Trop-2 on the cell surface …; assay: flow cytometry competition on Colo205 cells, competitor of 2EF-488 at 9x and 27x
Procedure: as §1

[6] = molecular target: T1, human Trop-2 on the cell surface …; assay: flow cytometry competition on Colo205 cells, competitor of 2EF-488
Procedure: as §1

B1: chimeric 2G10 IgG1/kappa antibody (Ch2G10) (antibody, V domains shown)
VH: QGQMQQSGAELVKPGASVKLSCKTSGFTFSSSYISWLKQKPRQSLEWIAWIYAGTGGTSYNQKFTGKAQLTVDTSSSTAYMQLSSLTSEDSAIYYCARHNPRYYAMDYWGQGTSVTVSS
VL: ETTVTQSPASLSMAIGEKVTIRCITSTDIDDDMNWYQQKPGEPPKLLISEGNTLRPGVPSRFSSSGYGTDFVFTIENMLSEDVADYYCLQSDNLPYTFGGGTKLEIKR
notes: also called Ch2G10-IgG1/k
B1: binds [1].

B2: mouse 2G10 antibody (hybridoma PD 08020) (antibody, V domains shown)
VH: B1 VH
VL: ETTVTQSPASLSMAIGEKVTIRCITSTDIDDDMNWYQQKPGEPPKLLISEGNTLRPGVPSRFSSSGYGTDFVFTIENMLSEDVADYYCLQSDNLPYTFGGGTKLEIK
notes: Mouse monoclonal from the hybridoma; also called murine 2G10
B2: binds [1].

B3: humanized Hu2G10-6 antibody (Hu2G10 VH2 and VL3, IgG1/kappa) (antibody, V domains shown)
VH: QVQLVQSGAEVKKPGASVKVSCKASGFTFSSSYISWLRQAPGQRLEWIAWIYAGTGGTSYNQKFTGRVTLTVDTSASTAYMELSSLRSEDTAVYYCARHNPRYYAMDYWGQGTTVTVSS
VL: DTQMTQSPSSLSASVGDRVTITCITSTDIDDDMNWYQQKPGKAPKLLISEGNTLRPGVPSRFSGSGYGTDFTFTISSLQPEDIATYYCLQSDNLPYTFGGGTKVEIKR
B3: binds [2].

B4: humanized Hu2G10-5 antibody (Hu2G10 VH1 and VL3, IgG1/kappa) (antibody, V domains shown)
VH: B3 VH with R67K, V68A
VL: B3 VL
With B4 the “EC50 of ADCC reporter bioassay (luciferase luminescence; Jurkat effector cells with V158 FcgammaRIIIa and NFAT-luciferase; MCF7 target cells)” value [3] was 4.15 µg/mL.

B5: mouse 2EF antibody (hybridoma PD 08021) (antibody, V domains shown)
VH: QVQLQQSGAELVRPGTSVKMSCKAAGYTFTNYWIGWVKQRPGHGLEWIGDIYPGGGYTNYNEKFKGKATLTADTSSSTAYMQLSSLTSEDSAIYYCARGTGGGDYWGQGTLVTVSA
VL: DIVLTQSPASLAVSLGQRATISCRASQSVSTSSYSYMHWYQQKPGQPPKLLIKYASNLESGVPARFSGSGSGTDFTLNIHPVEEEDTATYYCQHSWEIPYTFGGGTKLEIK
notes: Mouse monoclonal purified from the hybridoma; also called murine 2EF
B5: binds [4].

B6: humanized Hu2EF-7 antibody (Hu2EF VH7 and VL2, IgG1/kappa) (antibody, V domains shown)
VH: QVQLVQSGAEVKKPGASVKVSCKASGYTFTNYWIGWVKQAPGQGLEWIGDIYPGGGYTNYNEKFKGRATLTADTSASTAYMELSSLRSEDTAVYYCARGTGGGDYWGQGTLVTVSS
VL: DIVLTQSPDSLAVSLGERATINCRASQSVSTSSYSYMHWYQQKPGQPPKLLIKYASNLESGVPDRFSGSGSGTDFTLTISSLQAEDVAVYYCQHSWEIPYTFGGGTKLEIKR
In the case of B6, the “EC50 of ADCC reporter bioassay (luciferase luminescence; Jurkat effector cells with V158 FcgammaRIIIa and NFAT-luciferase; MCF7 target cells)” value [3] is reported as 0.052 µg/mL.

B7: humanized Hu2EF-5 antibody (VH5-Hu2EF and VL1-Hu2EF, IgG1/kappa) (antibody, V domains shown)
VH: B6 VH with K38R, A76T
VL: DIVMTQSPDSLAVSLGERATINCRASQSVSTSSYSYMHWYQQKPGQPPKLLIKYASNLESGVPDRFSGSGSGTDFTLTISSLQAEDVAVYYCQHSWEIPYTFGQGTKLEIK
notes: human IgG1/kappa constant regions
B7: binds [5].

B8: humanized Hu2EF-4 antibody (VH4-Hu2EF and VL1-Hu2EF, IgG1/kappa) (antibody, V domains shown)
VH: B6 VH with K38R
VL: B7 VL
notes: as for B7
B8: binds [6].
